Reference: article PMC12840758, “The Cold Shock Protein CspB from Mycobacterium tuberculosis Binds to MTS0997 sRNA and MTS1338 sRNA as a Dimer” (International Journal of Molecular Sciences, 2026)

Molecular target: the molecule itself
Assay: SEC; Superdex 75 Increase 10/300 GL, 200 mM NaCl, 50 mM Tris-HCl pH 8.0; 1 mg/mL, 100 uL injected, 0.5 mL/min; calibrated with monomeric globular proteins of 45.8, 24.8, 15.4 and 7.3 kDa

B1: Cold shock protein CspB from Mycobacterium tuberculosis (natural protein)
chain: MPTGKVKWYDPDKGFGFLSQEGGEDVYVRSSALPTGVEALKAGQRVEFGIASGRRGPQALSLRLIEPPPSLSRPRREPAAEHKHSPDELHGMVEDMITLLESTVQPELRKGRYPDRKTARRVAEVVRAVAREFES
notes: Removal of the C-terminal His6 tag is not mentioned; also called MtbCspB; M. tuberculosis CspB
- stoichiometry N: 2
